These results are taken from a protein production outcome set (Wang et al. 2014).

A short description of the data set: label from the status in PepcDB records.
For the sequence “MKELNLTQGSVPKVLLQYAVPFLIANVLQALYGGADLFVVGQYDDSASVAAVAIGSQVMQTITGIILGITTGTTVLIAIATGAKDDKKVAFTIGSSVWLFSIIGVLLTLVMVVFHGRIAELMHTPIEAMADTKSYILVCSAGILFIVGYNVVCGILRGLGDSKTPLYFVALACVINIVLDFILVGYFHLGATGAAVATITAQGVSFMISLWFLYRHGFHFEFTRKDIRLNRNLAKKVMTLGAPIALQDALINISFLIITVIVNQMGVIASASLGVVEKIIVFAMLPPMAISSAVATMTAQNYGAGLIQRMNRCLASGIGIAFVFGVSVCVYSQFLPETLTAFFTKDAAVVSMAAEYLRGYSIDCIVVSFVFCINSYFSGQGNSLFPMIHSLIATFLFRIPLSYWFSQIDSSSLFIMGFAPPLSTVVSLLICIWYLRYTRKKVYLKGTMMPAMSN”, the protein production result is recorded as “failed”.

Turning to “MKERRAPQPVVARCKLVLVGDVQCGKTAMLQVLAKDCYPETYVPTVFENYTACLETEEQRVELSLWDTSGSPYYDNVRPLCYSDSDAVLLCFDISRPETVDSALKKWRTEILDYCPSTRVLLIGCKTDLRTDLSTLMELSHQKQAPISYEQGCAIAKQLGAEIYLEGSAFTSEKSIHSIFRTASMLCLNKPSPLPQKSPVRSLSKRLLHLPSRSELISSTFKKEKAKSCSIM”, the protein production entry was “failed”.

With “MKERVIITGANGQLGKQLQEELNPEEYDIYPFDKKLLDITNISQVQQVVQEIRPHIIIHCAAYTKVDQAEKERDLAYVINAIGARNVAVASQLVGAKLVYISTDYVFQGDRPEGYDEFHNPAPINIYGASKYAGEQFVKELHNKYFIVRTSWLYGKYGNNFVKTMIRLGKEREEISVVADQIGSPTYVADLNVMINKLIHTSLYGTYHVSNTGSCSWFEFAKKIFSYANMKVNVLPVSTEEFGAAAARPKYSIFQHNMLRLNGFLQMPSWEEGLERFFIETKSH”, the protein production entry is “not failed”.

As for “MKETPRASGATNFILVGLGVIIALLGLLLAAGGVKLAGLGGSWYFLIGGLAMAIAGVLIARRKKAGAWLYAVFLVGTAIWALIDAGLVFWPLFSRLFMFGAIGMVVALVYPLLARANGASAGRGAYGVAGVMAVVLVVAVGNMFVAHPSVAPTGKGPGMTPVETGKEQKDWAHYGNTEGGSRFAALDQINRDNVNKLKVAWTYQTGDVAISDGNGAEDQLTPLQIGSKVFICTPHNNLIALDADTGKELWKNEINAQSKVWQRCRGMAYFDATAAIAQPTQPNSSPITGVSVAAGANCQRRLLTNTIDGRLIAVDADTGEFCQGFGNNGQVDLKAGLGDVPDSYYQLSSAPLMAGTTVVVGGRVADNVQTDMPGGVIRGFDVITGEMRWAFDPGNPEDRQAPQGDKTYVRSTPNSWAPMSYDPAMNTVFLPMGSSSTDIYGVERSKLDHTYGASVLALDATTGNQKWVFQTVHNDLWDFDLPMQPSLIDFTKDDGQSVPAVVIGTKAGQIYVLDRATGKPLTQVDEVPVKPSNIPNEPYSPTQPKSVGMPQIGAQTLTESDMWGATPYDQLLCRIDFKKMRYDGLYTAPGTDLSLSFPGSLGGMNWGSISTDPVHGFIFVNDMRLGLWIQMIPSQNKGGAASGGEALNTGMGAVPLKGTPYAVNKNRFLSVAGIPCQAPPFGTLTAIDMKTRQVAWQVPVGTVEDTGPLGIRMHLPIKIGLPTLGGTLSTQGGLVFIAGTQDFYLRAYDSSNGNEIWKARLPVGSQGGPMTYVSPKTGKQYVVITAGGARQSTDRGDYVISYALP”, the protein production entry is “failed”.

For “MKEVRIVFQPGEISVPVAAGTTIMEAMNRSGLGEDFPCGGRGKCGKCRVKVREGREDFTAIDEDHLTAQELAEGVRLACATKINRDMMVEMQSPKKLQHHILIDSAARAFHIHPHLVKVFAEIAQPSLSEHKSDWQRLQESLAGLGCSVHDLQAPLSVLRRLPDTLRESTNRVTTIVYGSQVLGVEQGDTTGTLLGMAFDIGTTTIVGYLLDLNSGRELEVVSTLNPQAQYGGDVISRITFAGKEEKGLDTLHQAVTGAMNRLIGEAVDKAGVSRTQLYGISVAANTTMHHLFLGITPRSIGMSPYVSAINQGLVVAPGELGLEINKAGRVFVLPNIAGFVGADTTAVLLASDLEKSDHVTLILDIGTNGEIVLGSKNRMVACSAAAGPAFEGAQITSGMRGADGAIDHISFDHGLSYTVIGNGRPIGICGSALLDGVAGFVELGMINKRGKFLEPEKLTHPSALKLKDRLIKYEETWAFQLVEAGQTRHGRPILITQNDIRELQLAKGAIAAGVRILQEAMGIECEDIKEVLLAGAFGNYLNPHSACVIGLIPRELESRIKTIGNAAGNGAKIALLSAQEFSRAKDLAGGVSFVELGSYPGFNTIFAQNTYFKLDLEHHHHHH”, the protein production result is given as “not failed”.

Regarding “MKEVTPRFVELGQVSAIRTEPEIAYRSNQGVTRQRQQTKVFKLVSTYDKVAVKNAIRAAYRQVFERDLEPYIINSEFTALESKLSNNEINVKEFIEGLGTSELYMKEFYAPYPNTKVIEMGTKHFLGRAPLNQKEIQQYNQILASQGLKAFIGAMVNGMEYLQTFGEDTVPYRRFPTLPAANFPNTERLYNKLEHHHHHH”, the protein production result is “not failed”.

With “MKEYLTRSNISYFSIGSGTPIIFLHGLSLDKQSTCLFFEPLSNVGQYQRIYLDLPGMGNSDPISPSTSDNVLETLIEAIEEIIGARRFILYGHSYGGYLAQAIAFHLKDQTLGVFLTCPVITADHSKRLTGKHINILEEDINPVENKEYFADFLSMNVIINNQAWHDYQNLIIPGLQKEDKTFIDQLQNNYSFTFEEKLKNINYQFPFKIMVGRNDQVVGYQEQLKLINHNENGEIVLLNRTGHNLMIDQREAVGFHFDLFLDELNSNN”, the protein production entry is reported as “not failed”.

Consider “MKFAVAVSGDRVNGPGESEEVQIYETDGGNVRLIEKYSNPALNATAARGVFMLKSALDHGANALVLSEIGSPGFNFIKNKMDVYIVPEMPVADALKLILEGKVSPATAPTHDHGHHH”, for which the protein production entry is “not failed”.

As to “MKFDRHRRLRSSATMRDMVRENHVRKEDLIYPIFVVEKDDVKKEIKSLPGVYQISLNLLESELKEAYDLGIRAIMFFGVPNSKDDIGTGAYIHDGVIQQATRIAKKMYDDLLIVADTCLCEYTDHGHCGVIDDHTHDVDNDKSLPLLVKTAISQVEAGADIIAPSNMMDGFVAEIRRGLDEAGYYNIPIMSYGVKYASSFFGPFRDAADSAPSFGDRKTYQMDPANRLEALRELESDLKEGCDMMIVKPALSYLDIVRDVKNHTNVPVVAYNVSGEYSMTKAAAQNGWIDEERVVMEQMVSMKRAGADMIITYFAKDICRYLDK”, the protein production result was “failed”.

As to “MKFEILQQLNAERAARRPAIVVTDTATGAQRLVKAADIAADPLAAELGKQLRMGKSASIEIDGRKLFLNVYAPTAKLVIVGAVHISQALAPLARSLGYDVTVVDPRTAFASPERFPDVPLIAEWPDVALPPLNIDHYTAFVALTHDPKIDDPALLHAFARDCFYIGALGSKKTHAKRLERLKGQGASDADLGRIHAPIGLAIGAVSPSEIAVSIMAEITAALRLPASSKAAAA”, the protein production result was “failed”.

As to “MKFEKRQVYYVVITFAICYAIQAYWGAVSNILTTLHKAIFPFLMGAGIAYIINIVMSVYERLYIKLFKGSRLLMAIKRSVSMILSYATFIGLIVWLFSIVIPDLISSLSSLLVIDTGALAKLVNNLNENKQISEVLNYMGTDKDLVSTLSGYSQQILKQVLSVLTNLLTSVSSIAATLLNVFVSFIFSIYVLANKEQLGRQFNLLIDTYLGSTGKTFHYVRHILHQRFHGFFVSQTLEAMILGSLTVIGMLIFQFPYALTVGVLVAFTALIPVVGAYIGVTIGFILIATESLTEAFLFVLFLILLQQFEGNVIYPKVVGGSIGLPSMWVLMAITIGGALWGILGMLLAVPVAATIYQIVKDHIIKRQTLRNCARTYR”, the protein production result is listed as “failed”.

For “MKFESYDLAPGIKKSLAEAGFNRPTDIQFKSIPPILAGEDVLAIAQTGTGKTAAFVIPVLNTLINVKKSEHTDISCLVMAPTRELAVQISEVFKKIGAYTRLRTVCITGGVEQEAQIAAADYGIDILVATPGRMFDLIYQKHIKITRVKILVLDEADHMLDLGFIKDIQDVKKFLPARHQTLFFSATINEEIKKLAYSLVKNPIRIQIAPKDRVSKNITHSVAFIGMDDKRFFLERLLKEHPESKVIVFVRTQVRADRVQAAMERVGLKSVTMHGGKEQQARDAAMDAFKNGTVHVLIATDISARGIDIAGVEYVVNYDMPEVAENYVHRVGRTGRGVSKGFAISFCSMEEKPVLDEVEEFLGKEINVIEITGKDYDATLDLTEDVNDNWKALLKEADAETTKKYVPKKKKKK”, the protein production result is “failed”.

Consider “MKFFGEIAERAGVPSVMGEILAGILFGALFLDVETGIITFFAQLGSIFLLFTAGYKEVSLRDLRPAVLVAFIPTLTQLVFAFAFGFMLGKIFNFTFLQSLFMAVALSPTAIGVVIRILIDLNYLSSRPGLVMLSSAVLDDIIAISLLSLIVTFARFNRAPSALAVLTISGKILLFLLIMYILGKYFFPRLFVHAQKMHAKEAVFSLVVMTALFSSYLAELFELHATIGAFIGGMLISEIPLAKIPDVQSKVEGLAYGILIPLFFAFIGYSIDLYALVKAGIFVPVVTLLALSGKLIGGFIGSKAIGFNFCESLAFGAGVMPRAGIELVMLTIGRGIGIIGEEIFSAMVFMVIVSILISPSALKFAIQAERKNKTGNELKVG”, for which the protein production entry is given as “failed”.

With “MKFGETFDMVLSDVRGKKIHASVKREHLNRFERLIVPGEWRAIENFGLTYATGQFKATDHRYKMGFMAQTRVVRIDPLSDSYFLSLTAFNDVLNGGLNQNYLIDVVGQIVNVGEMETIDVHNQPTKKIDFELRDQKDERLPCTLWGSFAEQVFTACEAANGEMIICLVRFAKLKTYKDVRSISNAFNTSQILINPDLPEILEFKDALPKDCLALTLIESKPKSKIDEFPTGDFYLQFAKKTIKEVSEMFDVGRVKVLCTIYDIDRDWSWYYIVCKKCNKKVTKVVMTSLKAQLWCETCRAPITNVLARYKLHVKVMDSSGEMKLMLFDAMSSEIVGCPANNLLDGSFDEIEDPDILPDSIKNLIGKTYQYLVCVENENKRYQMHDSIDQCSLMLTYSEEPSEATTPSSKRSSDTSISPADNFSTTKKLCLDSIKIVKIKQEMVEKNNEAKVVGEKLNF”, the protein production result is “failed”.

As to “MKFGKRHYRPQVDQMDCGVASLAMVFGYYGSYYFLAHLRELAKTTMDGTTALGLVKVAEEIGFETRAIKADMTLFDLPDLTFPFVAHVLKEGKLLHYYVVTGQDKDSIHIADPDPGVKLTKLPRERFEEEWTGVTLFMAPSPD”, the protein production entry was “not failed”.

In the case of “MKFKNILFDFDDTLVDFYDAEKKAFYNLAQKYNHQPTQQDFEHFKKVNQAHWEAFQQNKLTKDEVLSQRFINYFNDYQIHVNGKEADKCFRAELAMAPVKLFDHTLEVIQQLKLNHSLYIVTNGVTETQLRRIAQTQFNEIFQDVFISEKAGFQKPMTEFFDFVFEHIGENNRNQTLIVGDSLTSDILGGKNANISTCWFNIRQKENHTSIQPDYIINDLSEMIRIVE”, the protein production entry was “failed”.

Turning to “MKFLGRGRELARFKEELDAARPSLVILYGRRRVGKSRFLRELGKSRKEIYFQATRVSSLLNLEQFKIEVANILGALPVLESLPSWEGVFYYIAEHTRNNPGLLITIDEFPYLLDGDPALPSILQKFWDSGAPADGGLKLILCGSSISQMQDLLAERNPLYGRQTLSLDMKQLPLTDVARFFPKYDAEAIISTYAIFGGIPHYLQLFNPDVPLKDNVVRLLLTETGTLVDEPNTLLQTELHEPGFYSSVLAAIADGCNTTSEIASRLGVKVEKITSYAAKLVALHLISNTKSLDVDEKVRNRRFRLDDSLISFWHRFVRPSLTAISGGFGEEVYRQVVAPGFSEYMGIAFEAIALEYARIHIQEKLGLPAKELGQIWGHSDFDIDVAGRLLNGEYFYGDCKWTNADIDMGHLRQLRERSERTRYGRGTAGKHFLLFSKAGFSTDLIVFAKDETRRVHLLTPNDLVRPNQ”, the protein production result was “failed”.

Regarding “MKFLTVSDDMNFLRQVNTLVAGKGDMDSVIIGEGDAKGLGSKVLYRAKKGTPFDAVSEGILKIAGNYDYIAIGSTEVGREIAGYLSFKTGFYTATEIFSLEFNGQKAHTKRFFYGGKTVIEEESDARILTVAPGVIEAKDLGTTPEIRDLEIGQSRIKITKFV”, the protein production result was “not failed”.
